Laboratory results: US10006080B2, “High-selectivity contact activation inhibitor based on infestin-4” (OBSCHESTVO S OGRANICHENNOY OTVETSTVENNOSTYU …, priority 2013, dated 2018)

Columns and labels:
[1] = tested on: whole blood; assay: Spontaneous clotting time of whole blood collected without calcium chelator; parameters: species or system human; details: MutB 10 μM, CTI 5 μM; 22° C., no calcium chelator; 3 healthy donors
Procedure: We used concentrations of contact activation inhibitors leading to 2.5-fold increase of APTT in normal plasma. Untreated whole blood was collected from 3 healthy donors without adding any anticoagulant, for example, citrate, except for the said contact activation inhibitors. The blood was mixed with the said inhibitors at 22° C. using a rotator, after which the time of clot formation in the blood was measured.
Blood was collected from the median cubital vein of the left hand into a sterile syringe Master UN PE, volume 10 ml, needle 21 G×1½″; 0.8×40 mm (FarmLine, USA). Calcium chelator or other anticoagulants, except contact activation inhibitors MutB or CTI, were not added into plasma. […] The collected blood was poured into a 15 ml tube, mixed by inverting it twice, after which 0.7 ml portions of blood were poured into 1.5 ml polypropylene microcentrifuge tubes MaxyClear Snaplock (Axygen, USA); immediately after, time record using a stopwatch started. Preliminarily, 78 microliters of MutB solution at 100 μM concentration, CTI solution at 50 μM concentration, or buffer solution of 30 mM Hepes pH 7.4 were added into the said tubes. The tubes containing the mixture of whole blood with the said solutions were fixed in the rotator and mixed by inverting them at the rotation speed of 10 rpm. The time of appearance of clots or fibrin filaments in the whole blood during mixing was fixed.

[2] = target: T1, fXIa (Homo sapiens, UniProt P03951); assay: Chromogenic test of protease inhibition in buffer, fXIa (substrate S-2366); format: biochemical; details: buffer solution, summary of Table 2
T1 construct: factor XI into its active form, factor XIa (fXIa)
Procedure: (§1) In order to assess selectivity of the fXIIa inhibition by the polypeptide comprising the sequence of the infestin-4 mutant MutB, its inhibitory activity in buffer solution against the purified coagulation factors was determined. The polypeptide's activity was compared with the known fXIIa inhibitors: CTI, infestin-4, infestin-4-based mutant Mut15, LCTI-III. […] The standard deviation amounted to about 50% of the average value; each value was measured by performing 2-3 repeats.
(§2) To determine the inhibition activity of such proteins as MutB, CTI, Inf4, Mut15, and LCTI-III as related to different coagulation proteases in a buffer, the chromogenic test was used: the mixture of protease and inhibitor was incubated in the wells of the plate for 15 minutes at 37° C., after which the chromogenic substrate solution was added to the mixture, and the protease activity was measured as the rate of chromogenic product formation at 37° C.
(§3) Chromogenic substrates included a p-nitroanilide group cleaved by the corresponding proteases. After cleavage of the p-nitroanilide group from the substrate molecule, the group absorption spectrum changes, and the change of concentration of such product within time can be detected at the light wavelength of 405 nm using a plate spectrophotometer. To build a dependence curve of the protease activity from the inhibitor concentration, different inhibitor concentrations were added into several samples with the same protease concentration. After that, the inhibitor concentration able to decrease the protease activity by 50% (IC50) was determined. The inhibition constant Ki was calculated using the Cheng-Prusoff equation (Ki=IC50/(1+S/KM)), where S is the initial substrate concentration, KM is the Michaelis-Menten constant of the substrate to the protease.
Native infestin-4 and its mutants MutB and Mut15 used here were fusion proteins with thioredoxin I E. coli containing polyhisticline clusters. […]

[3] = target: T2, fXIIa (Homo sapiens, UniProt P00748); assay: Chromogenic test of protease inhibition in buffer, fXIIa (substrate S-2302); format: biochemical; details: versus fXIa, fXa, aPC; Table 2
T2 construct: it can be transformed into an active protease, factor XIIa (fXIIa)
Procedure: as §1, §2
(§4) Chromogenic substrates included a p-nitroanilide group cleaved by the corresponding proteases. After cleavage of the p-nitroanilide group from the substrate molecule, the group absorption spectrum changes, and the change of concentration of such product within time can be detected at the light wavelength of 405 nm using a plate spectrophotometer. […]

[4] = target: fXa (Homo sapiens, UniProt P00742); assay: Chromogenic test of protease inhibition in buffer, fXa (substrate S-2765); format: biochemical; details: buffer solution, summary of Table 2
fXa, sequence (P00742 235-488 limits assumed): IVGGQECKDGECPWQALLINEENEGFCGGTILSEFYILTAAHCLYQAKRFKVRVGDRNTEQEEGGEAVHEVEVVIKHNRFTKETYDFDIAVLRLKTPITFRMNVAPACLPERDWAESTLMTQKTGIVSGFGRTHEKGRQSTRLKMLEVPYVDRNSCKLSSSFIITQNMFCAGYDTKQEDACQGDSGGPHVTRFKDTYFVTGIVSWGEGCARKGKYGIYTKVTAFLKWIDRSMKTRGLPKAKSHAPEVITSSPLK
fXa, sequence (P00742 41-179 partner limits assumed): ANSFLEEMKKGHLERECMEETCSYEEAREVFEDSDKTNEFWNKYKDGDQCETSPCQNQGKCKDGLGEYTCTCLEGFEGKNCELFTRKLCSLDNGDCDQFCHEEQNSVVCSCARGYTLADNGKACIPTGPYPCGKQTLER
Procedure: as §1, §2, §4

[5] = target: T3, factor XIa (UniProt P03951 19-625); assay: chromogenic test (S-2366), IC50 converted by Cheng-Prusoff
T3 construct: also called fXIa
Procedure: as §2, §3

[6] = target: T4, factor XIIa (UniProt P00748 20-615, limits assumed); assay: chromogenic test (S-2302), IC50 converted by Cheng-Prusoff
T4 construct: also called fXIIa
T4 sequence (looked up): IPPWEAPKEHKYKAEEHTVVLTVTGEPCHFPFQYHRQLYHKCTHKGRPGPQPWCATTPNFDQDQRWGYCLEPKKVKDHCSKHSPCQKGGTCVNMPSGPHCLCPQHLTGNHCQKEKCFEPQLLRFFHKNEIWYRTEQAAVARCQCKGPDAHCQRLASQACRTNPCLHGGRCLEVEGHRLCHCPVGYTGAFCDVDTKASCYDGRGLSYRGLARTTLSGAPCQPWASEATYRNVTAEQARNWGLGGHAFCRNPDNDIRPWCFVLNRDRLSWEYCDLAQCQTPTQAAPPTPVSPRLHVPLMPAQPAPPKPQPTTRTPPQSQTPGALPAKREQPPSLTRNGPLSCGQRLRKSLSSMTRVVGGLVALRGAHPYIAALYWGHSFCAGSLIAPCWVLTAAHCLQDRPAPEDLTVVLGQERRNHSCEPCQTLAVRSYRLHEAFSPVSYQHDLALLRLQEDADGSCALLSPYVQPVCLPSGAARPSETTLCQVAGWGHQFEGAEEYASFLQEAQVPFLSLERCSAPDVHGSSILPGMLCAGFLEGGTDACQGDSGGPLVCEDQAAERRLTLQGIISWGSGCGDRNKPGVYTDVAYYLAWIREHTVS
Procedure: as §2, §3

[7] = target: T5, activated protein C (UniProt P04070 43-197; P04070 212-461); assay: chromogenic test (Spectrozyme pCa), IC50 converted by Cheng-Prusoff
T5 construct: also called aPC
T5 sequence (P04070 43-197, form in doubt, chain 1 of 2): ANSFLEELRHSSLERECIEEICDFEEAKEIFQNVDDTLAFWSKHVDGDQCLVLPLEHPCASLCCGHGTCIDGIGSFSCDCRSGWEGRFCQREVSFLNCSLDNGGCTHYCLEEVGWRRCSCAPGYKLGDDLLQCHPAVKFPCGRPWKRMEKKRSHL
T5 sequence (P04070 212-461, form in doubt, chain 2 of 2): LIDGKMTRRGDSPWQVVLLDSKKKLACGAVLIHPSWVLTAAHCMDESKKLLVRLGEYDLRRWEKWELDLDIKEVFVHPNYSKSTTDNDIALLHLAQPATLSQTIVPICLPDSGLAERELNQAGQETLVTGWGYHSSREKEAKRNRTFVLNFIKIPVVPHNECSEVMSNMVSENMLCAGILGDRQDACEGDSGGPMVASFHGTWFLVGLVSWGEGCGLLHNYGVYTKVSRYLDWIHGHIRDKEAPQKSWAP
Procedure: as §2, §3

[8] = target: aPC (Homo sapiens, UniProt P04070); assay: Chromogenic test of protease inhibition in buffer, aPC (substrate Spectrozyme pCa); format: biochemical; details: buffer solution, summary of Table 2
aPC, sequence (P04070 212-450 limits assumed): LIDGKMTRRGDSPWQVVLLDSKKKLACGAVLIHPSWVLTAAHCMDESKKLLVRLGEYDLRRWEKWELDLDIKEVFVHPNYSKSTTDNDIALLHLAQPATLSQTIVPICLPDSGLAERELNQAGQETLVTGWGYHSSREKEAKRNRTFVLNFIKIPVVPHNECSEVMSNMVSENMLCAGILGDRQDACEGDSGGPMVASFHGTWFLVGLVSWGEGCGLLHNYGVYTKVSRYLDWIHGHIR
aPC, sequence (P04070 43-197 partner limits assumed): as the sequence (P04070 43-197, form in doubt, chain 1 of 2) above
Procedure: as §1, §2, §4

[9] = tested on: fibrinolysis; details: supposedly by inhibiting the tissue activator of plasminogen; cited from earlier work

For “MutB: polypeptide comprising the sequence of infestin-4 mutant MutB (SEQ ID NO: 1), inhibition loop TRNFVA; high-selectivity fXIIa inhibitor (EVRNPCACTRNFVAVCGSDGKTYGNPCMLNCAAQTKVPGLKLVHEGRCQRSNVEQF; Infestin-4 mutant MutB)”, the “increase of the whole blood storage time in the tube (clotting time)” value [1] was “two to three-fold”, the “inhibition of fXIa (in words)” value [2] was “do not inhibit” and the “fXIIa inhibition selectivity among the said fXIIa inhibitors” value [3] was “highest”. The “inhibition of fXa (in words)” value [4] was “do not inhibit”.

B1: corn trypsin inhibitor (other, UniProt P01088 29-138, looked up)
chain: SAGTSCVPGWAIPHNPLPSCRWYVTSRTCGIGPRLPWPELKRRCCRELADIPAYCRCTALSILMDGAIPPGPDAQLEGRLEDLPGCPREVQRGFAATLVTEAECNLATIS
notes: Isolated from corn; also called CTI
With B1 the “increase of the whole blood storage time in the tube (clotting time)” value [1] was “two to three-fold”, the “inhibition of fXIa (in words)” value [2] was “inhibits” and the Ki [5] was 15 µM. The Ki [6] was 0.001 µM, the Ki [7] was 20 µM and the “inhibition of aPC (in words)” value [8] was “inhibits”. The effect on fibrinolysis [9] was “can delay fibrinolysis”.
